Test results from US20100196361A1, “Method of inhibition of vascular development using an antibody” (DYAX CORP., priority 2003, published 2010).
Numbering of substitutions follows the chain as printed.

B1: E3: human anti-Tie1 antibody from phage Fab library, reformatted as IgG; HC variable SEQ ID NO:114, LC variable SEQ ID NO:116 (antibody, V domains shown)
VH: EVQLLESGGGLVQPGGSLRLSCAASGFTFSMYGMVWVRQAPGKGLEWVSVISPSGGNTGYADSVKGRFTISRDNSKNTLYLQVNSLRAEDTAVYYCARAPRGYSYGYYYWGQGTLVTVSSASTKGPSVFPLAPSSKSTSGG
VL: DIQMTQSPLSLSASVGDRVTITCRASQGIGHYLAWYQQKPGKVPKLLIYTASTLQSGVPSRFSGSGSGTDFTLTINSLQPEDVATYYCQQFNSYPHTFGQGTRLDIK
modifications: IgG constant regions; Synthetically generated peptide
B2: germlined E3 Fab: soluble Fab of E3 with LC framework regions germlined to DPK4; LC variable SEQ ID NO:159 (antibody, V domains shown)
VH: B1 VH
VL: B1 VL with L9S, N76S, D105E
B3: parental E3 Fab: soluble Fab fragment of the parental E3 anti-Tie1 antibody (antibody, V domains shown)
VH: B1 VH
VL: B1 VL
B4: DX-2210: E3 antibody in which the light chain has been germlined (antibody, V domains shown)
VH: B1 VH
VL: B1 VL with L9S, N76S, D105E

Experiments:
human Tie1 Fc = biological target: T1, human Tie1 Fc (Homo sapiens, UniProt P35590); assay: BIAcore, Tie1 Fc over IgG coated on CM5 chip; assay type: binding; conditions: IgG immobilised; Human Tie1 Fc analyte
T1 construct: selected against the Tie1 extracellular domain fused to human Fc or to a histidine purification tag
T1 sequence (P35590 22-759 limits assumed): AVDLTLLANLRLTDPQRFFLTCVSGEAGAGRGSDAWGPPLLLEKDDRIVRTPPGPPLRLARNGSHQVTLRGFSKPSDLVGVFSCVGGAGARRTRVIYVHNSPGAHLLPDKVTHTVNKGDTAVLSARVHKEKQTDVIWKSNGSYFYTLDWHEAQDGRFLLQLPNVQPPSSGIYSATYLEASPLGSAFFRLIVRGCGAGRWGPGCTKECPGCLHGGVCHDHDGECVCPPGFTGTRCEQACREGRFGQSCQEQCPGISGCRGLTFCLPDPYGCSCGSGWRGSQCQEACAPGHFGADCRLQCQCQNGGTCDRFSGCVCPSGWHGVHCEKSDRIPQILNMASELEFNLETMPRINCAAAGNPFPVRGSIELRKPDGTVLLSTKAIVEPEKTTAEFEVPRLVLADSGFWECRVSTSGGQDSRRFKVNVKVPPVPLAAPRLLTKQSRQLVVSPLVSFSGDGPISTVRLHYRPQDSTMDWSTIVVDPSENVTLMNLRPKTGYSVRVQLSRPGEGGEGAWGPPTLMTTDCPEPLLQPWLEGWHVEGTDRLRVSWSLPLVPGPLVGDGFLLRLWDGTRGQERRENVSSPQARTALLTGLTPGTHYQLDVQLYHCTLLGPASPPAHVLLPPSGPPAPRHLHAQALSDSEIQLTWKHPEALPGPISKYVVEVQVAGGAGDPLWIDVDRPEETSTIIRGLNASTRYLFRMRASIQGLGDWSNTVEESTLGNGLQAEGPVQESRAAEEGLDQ
Protocol: The germlined E3 IgG1 stock solution 0.63 mg/ml was diluted 1/50 in a buffer of pH4.5 and the parental E3 IgG1 stock solution 0.56 mg/ml (2143-001) was diluted 1/50 in a buffer of pH 4.5. The IgG were directly coated onto a CM5 chip. The surface of the chips was activated with a 7 minute pulse of 0.05M NHS/0.2M EDC and the IgG was flowed over until 780RU germlined E3-IgG and 728 non germlined E3 IgG was coated onto the surface. All flow cells were subsequently deactivated with a 7 minute pulse of 1M ethanolamine hydrochloride pH 8.5. All analysis was performed in HBS buffer. Purified recombinant human Tie1 Fc was diluted 1/28.7 in HBS to obtain a 400 nM stock solution. Serial dilutions were made to obtain 200 nM, 100 nM, 50 nM and 25 nM Tie1 Fc stocks. For analysis of the association phase samples were injected at 30 μl/min for 8.3 minutes using kinject program. This was followed by a 40 minutes dissociation phase. Any antigen remaining associated to the surface was stripped from the IgG surface at a flow of 50 μl/min with two injections of 10 mM glycine pH 1.5 for 30 seconds. All samples were run and analyzed in duplicate
(§1) Sensorgrams were analyzed using the simultaneous ka/kd fitting program with 1:1 model in the BIAEVALUATION™ software 3.1.

mouse Tie1 Fc = biological target: T2, mouse Tie1 Fc (Mus musculus, UniProt Q06806); assay: BIAcore, Fab over biotinylated mouse Tie1-Fc on streptavidin chip; assay type: binding; conditions: Fab analyte; for kon: 740 RU
T2 construct: both dimeric (Tie1-Fc fusion protein) and monomeric (Tie1-HIS) versions of the extracellular domain of the Tie1 were used
T2 sequence (Q06806 23-755 limits assumed): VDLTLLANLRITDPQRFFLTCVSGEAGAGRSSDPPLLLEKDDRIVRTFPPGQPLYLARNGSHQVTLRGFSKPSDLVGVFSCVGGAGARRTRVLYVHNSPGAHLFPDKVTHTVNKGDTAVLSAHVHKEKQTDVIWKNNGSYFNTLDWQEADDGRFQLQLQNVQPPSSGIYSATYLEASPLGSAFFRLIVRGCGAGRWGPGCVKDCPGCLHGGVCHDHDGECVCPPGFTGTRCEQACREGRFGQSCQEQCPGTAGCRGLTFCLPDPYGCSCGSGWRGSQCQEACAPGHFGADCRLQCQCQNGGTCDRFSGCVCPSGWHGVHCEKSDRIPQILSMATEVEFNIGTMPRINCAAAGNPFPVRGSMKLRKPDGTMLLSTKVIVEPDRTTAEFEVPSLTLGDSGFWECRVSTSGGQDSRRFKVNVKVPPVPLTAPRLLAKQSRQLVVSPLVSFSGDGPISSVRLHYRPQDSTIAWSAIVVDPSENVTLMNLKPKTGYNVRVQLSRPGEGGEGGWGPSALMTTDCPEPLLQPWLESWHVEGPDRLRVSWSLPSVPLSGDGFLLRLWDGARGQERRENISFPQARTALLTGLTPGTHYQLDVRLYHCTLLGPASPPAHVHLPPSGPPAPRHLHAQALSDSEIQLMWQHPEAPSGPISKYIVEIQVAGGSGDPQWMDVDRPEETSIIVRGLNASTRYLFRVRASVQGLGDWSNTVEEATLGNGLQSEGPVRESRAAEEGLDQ
Protocol: Mouse Tie 1-Fc antigen (0.5 mg/ml stock) was biotinylated using established procedures and after dilution 1/100 fold in HBS this was then used for capturing to a streptavidin chip. This was coated to a resonance value of 740RU. All analysis was performed in HBS buffer. The parental Fab E3 0.587 mg/ml (11740 nM) was diluted 1/587 in HBS+BSA to obtain a stock of 20 nM and the germlined Fab E3 0.025 mg/ml (500 nM) was diluted 1/25 in HBS+BSA to obtain a stock of 20 nM. Serial dilutions were made of each Fab preparation to obtain 10 nM, 5 nM, 2.5 nM, and 1.25 nM. For the association phase samples were injected at 30 μl/min for 4 minutes using kinject program. This was followed by a 10 minutes dissociation phase, any remaining sample was stripped from the Tie1 Fc surface at a flow of 50 μl/min with a single injection of 50 mM NaOH+1 M NaCl for 18 seconds. All samples were run and analyzed in duplicate.
as §1

Molecule	koff (human Tie1 Fc)	kon (human Tie1 Fc)	koff (mouse Tie1 Fc)	kon (mouse Tie1 Fc)
B1	3.61e-05 s⁻¹	6190 M⁻¹ s⁻¹		
B2			0.00104 s⁻¹	340000 M⁻¹ s⁻¹
B3			0.00095 s⁻¹	246000 M⁻¹ s⁻¹
B4	3.67e-05 s⁻¹	7090 M⁻¹ s⁻¹		
